According to US20110305732A1:

Biological target: human Robo-1 (human) (UniProt Q9Y6N7)
Assay: cell-based or functional assay

UniProt Q9Y6N7, sequence (Q9Y6N7 26-1651): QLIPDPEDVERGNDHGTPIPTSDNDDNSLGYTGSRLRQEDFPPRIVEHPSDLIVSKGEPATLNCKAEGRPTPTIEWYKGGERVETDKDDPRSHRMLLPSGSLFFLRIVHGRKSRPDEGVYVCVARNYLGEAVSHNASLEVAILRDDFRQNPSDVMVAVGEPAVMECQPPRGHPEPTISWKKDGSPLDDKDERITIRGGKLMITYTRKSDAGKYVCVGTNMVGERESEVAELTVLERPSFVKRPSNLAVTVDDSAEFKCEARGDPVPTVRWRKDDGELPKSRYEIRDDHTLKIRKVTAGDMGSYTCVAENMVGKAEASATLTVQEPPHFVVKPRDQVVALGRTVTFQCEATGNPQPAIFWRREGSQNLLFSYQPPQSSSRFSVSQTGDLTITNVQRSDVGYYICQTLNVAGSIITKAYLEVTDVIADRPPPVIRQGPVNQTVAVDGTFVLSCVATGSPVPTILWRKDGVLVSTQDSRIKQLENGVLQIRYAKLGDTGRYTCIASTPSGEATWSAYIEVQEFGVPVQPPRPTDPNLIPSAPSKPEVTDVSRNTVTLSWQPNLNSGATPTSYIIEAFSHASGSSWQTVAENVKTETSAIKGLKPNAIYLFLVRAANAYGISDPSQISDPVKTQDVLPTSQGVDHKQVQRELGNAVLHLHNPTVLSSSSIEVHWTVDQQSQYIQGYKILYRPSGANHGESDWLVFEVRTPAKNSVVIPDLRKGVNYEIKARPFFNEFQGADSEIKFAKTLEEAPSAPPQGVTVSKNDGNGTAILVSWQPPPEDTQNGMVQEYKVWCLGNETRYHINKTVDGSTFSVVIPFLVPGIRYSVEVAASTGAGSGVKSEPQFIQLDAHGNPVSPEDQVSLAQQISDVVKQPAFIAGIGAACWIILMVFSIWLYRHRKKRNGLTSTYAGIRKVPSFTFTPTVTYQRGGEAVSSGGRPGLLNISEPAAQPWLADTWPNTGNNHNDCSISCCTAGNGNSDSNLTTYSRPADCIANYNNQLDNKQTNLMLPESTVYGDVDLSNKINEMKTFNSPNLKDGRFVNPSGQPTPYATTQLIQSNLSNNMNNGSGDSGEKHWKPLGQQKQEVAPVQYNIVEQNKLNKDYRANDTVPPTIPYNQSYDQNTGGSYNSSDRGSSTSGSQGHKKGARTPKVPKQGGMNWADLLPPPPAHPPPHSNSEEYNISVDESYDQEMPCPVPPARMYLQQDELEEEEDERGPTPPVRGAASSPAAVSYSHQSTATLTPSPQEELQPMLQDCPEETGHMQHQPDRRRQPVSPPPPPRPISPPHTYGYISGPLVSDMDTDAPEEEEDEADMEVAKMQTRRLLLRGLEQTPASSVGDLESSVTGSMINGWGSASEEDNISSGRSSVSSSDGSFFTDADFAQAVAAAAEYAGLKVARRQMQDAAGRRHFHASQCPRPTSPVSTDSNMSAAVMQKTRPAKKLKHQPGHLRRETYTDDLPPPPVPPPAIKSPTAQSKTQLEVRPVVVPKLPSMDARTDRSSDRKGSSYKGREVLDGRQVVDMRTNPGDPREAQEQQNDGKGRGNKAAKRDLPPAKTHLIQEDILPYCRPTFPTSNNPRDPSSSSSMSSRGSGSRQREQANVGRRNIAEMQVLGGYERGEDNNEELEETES

B1: full length human Slit2 (ligand, UniProt O94813-3 31-1521, looked up)
chain: QCSCSGSTVDCHGLALRSVPRNIPRNTERLDLNGNNITRITKTDFAGLRHLRVLQLMENKISTIERGAFQDLKELERLRLNRNHLQLFPELLFLGTAKLYRLDLSENQIQAIPRKAFRGAVDIKNLQLDYNQISCIEDGAFRALRDLEVLTLNNNNITRLSVASFNHMPKLRTFRLHSNNLYCDCHLAWLSDWLRQRPRVGLYTQCMGPSHLRGHNVAEVQKREFVCSGHQSFMAPSCSVLHCPAACTCSNNIVDCRGKGLTEIPTNLPETITEIRLEQNTIKVIPPGAFSPYKKLRRIDLSNNQISELAPDAFQGLRSLNSLVLYGNKITELPKSLFEGLFSLQLLLLNANKINCLRVDAFQDLHNLNLLSLYDNKLQTIAKGTFSPLRAIQTMHLAQNPFICDCHLKWLADYLHTNPIETSGARCTSPRRLANKRIGQIKSKKFRCSGTEDYRSKLSGDCFADLACPEKCRCEGTTVDCSNQKLNKIPEHIPQYTAELRLNNNEFTVLEATGIFKKLPQLRKINFSNNKITDIEEGAFEGASGVNEILLTSNRLENVQHKMFKGLESLKTLMLRSNRITCVGNDSFIGLSSVRLLSLYDNQITTVAPGAFDTLHSLSTLNLLANPFNCNCYLAWLGEWLRKKRIVTGNPRCQKPYFLKEIPIQDVAIQDFTCDDGNDDNSCSPLSRCPTECTCLDTVVRCSNKGLKVLPKGIPRDVTELYLDGNQFTLVPKELSNYKHLTLIDLSNNRISTLSNQSFSNMTQLLTLILSYNRLRCIPPRTFDGLKSLRLLSLHGNDISVVPEGAFNDLSALSHLAIGANPLYCDCNMQWLSDWVKSEYKEPGIARCAGPGEMADKLLLTTPSKKFTCQGPVDVNILAKCNPCLSNPCKNDGTCNSDPVDFYRCTCPYGFKGQDCDVPIHACISNPCKHGGTCHLKEGEEDGFWCICADGFEGENCEVNVDDCEDNDCENNSTCVDGINNYTCLCPPEYTGELCEEKLDFCAQDLNPCQHDSKCILTPKGFKCDCTPGYVGEHCDIDFDDCQDNKCKNGAHCTDAVNGYTCICPEGYSGLFCEFSPPMVLPRTSPCDNFDCQNGAQCIVRINEPICQCLPGYQGEKCEKLVSVNFINKESYLQIPSAKVRPQTNITLQIATDEDSGILLYKGDKDHIAVELYRGRVRASYDTGSHPASAIYSVETINDGNFHIVELLALDQSLSLSVDGGNPKIITNLSKQSTLNFDSPLYVGGMPGKSNVASLRQAPGQNGTSFHGCIRNLYINSELQDFQKVPMQTGILPGCEPCHKKVCAHGTCQPSSQAGFTCECQEGWMGPLCDQRTNDPCLGNKCVHGTCLPINAFSYSCKCLEGHGGVLCDEEEDLFNPCQAIKCKHGKCRLSGLGQPYCECSSGYTGDSCDREISCRGERIRDYYQKQQGYAACQTTKKVSRLECRGGCAGGQCCGPLRSKRRKYSFECTDGSSFVDEVEKVVKCGCTRCVS
  average platelet surface area coverage on collagen at shear flow rate 1900 sec^-1: 3.1%
  average surface area covered by platelets on collagen at shear flow rate 1000 sec^-1: 1.3%
  mean platelet surface area on fibrinogen after 30 min (platelet spreading): 20.9 µm^2
  mean surface area of platelets on collagen after 30 min (platelet spreading): 13.5 µm^2
  mean surface area of platelets on fibronectin after 30 min (platelet spreading): 19.3 µm^2
  percentage of platelets expressing cell-surface CD62P after ADP stimulation: 13.2%
  phosphorylation of Akt during platelet spreading on fibrinogen (fold over basal 1.0) (fold over basal): 2.8
